The record followed here is PMC2171568 (The Journal of Cell Biology, 2005).

Non-standard residues stand in square brackets, D forms with d. No end group written: not given here. pS = N[C@@H](COP(=O)(O)O)C(=O)O

Assay [1] concerns the target T1, 14-3-3 Saccharomyces cerevisiae isoform BMH1, His-tagged (Saccharomyces cerevisiae, UniProt P29311 1-267).
T1 sequence (looked up): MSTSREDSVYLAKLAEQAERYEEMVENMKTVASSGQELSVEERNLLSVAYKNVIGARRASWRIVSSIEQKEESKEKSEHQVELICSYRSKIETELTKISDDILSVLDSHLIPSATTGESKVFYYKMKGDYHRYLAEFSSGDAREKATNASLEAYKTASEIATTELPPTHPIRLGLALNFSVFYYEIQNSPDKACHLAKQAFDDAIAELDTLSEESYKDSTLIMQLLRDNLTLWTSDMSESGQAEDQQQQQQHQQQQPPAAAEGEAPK
The experiment in a line: pull-down.

In assay [2] the target is T2, 14-3-3 Saccharomyces cerevisiae isoform BMH2, His-tagged (Saccharomyces cerevisiae, UniProt P34730 1-273).
T2 sequence (looked up): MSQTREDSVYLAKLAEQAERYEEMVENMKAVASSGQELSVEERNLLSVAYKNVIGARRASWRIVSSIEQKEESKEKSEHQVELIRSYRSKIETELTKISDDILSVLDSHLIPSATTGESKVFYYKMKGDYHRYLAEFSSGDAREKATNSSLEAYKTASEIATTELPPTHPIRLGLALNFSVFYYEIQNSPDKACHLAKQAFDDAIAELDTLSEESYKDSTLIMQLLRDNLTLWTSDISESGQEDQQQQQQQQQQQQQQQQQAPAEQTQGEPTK
Nature of the assay: pull-down.

Take ARAA[pS]APA [peptide ARAApSAPA]: the binding result in assay [1] and in assay [2] was “binds” each time.
